Read-outs that look alike come from different tables or passages of the source.

This note sets out measurements from patent publication US6528283 (INSTITUTE NATIONAL DE LA SANT ET DE LA RECHERCHE M DICALE, dated 2003).

The labels stand for the following.
T1: GAL4 DNA-binding domain alone (empty pAS2-1 vector, negative control bait) (UniProt P04386 1-47, limits assumed)
T1 chain (looked up): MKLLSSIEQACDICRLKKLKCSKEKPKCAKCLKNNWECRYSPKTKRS

B1: mD52(95-185) bait (GAL4 DNA-binding domain fused to the C-terminal half of mD52, pAS2-1mD52(95-185)) (other)
chain: MKLLSSIEQACDICRLKKLKCSKEKPKCAKCLKNNWECRYSPKTKRSAYKKTSETLSQAGQKASAAFSSVGSVITKKLEDVKNSPTFKSFEEKVENLKSKVGGAKPAGGDFGEVLNSTANATSTMTTEPPPEQMTESP
notes: range 1-47
B2: hD53 interactor (GAL4 activation domain fused to full-length hD53, pACT2hD53) (other)
chain: ANFNQSGNIADSSLSFTFTNSSNGPNLITTQTNSQALSQPIASSNVHDNFMNNEITASKIDDGNNSKPLSPGWTDQTAYNAFGITTGMFNTTTMDDVYNYLFDDEDTPPNPKKEMEAQAQGLLETEPLQGTDEDAVASADFSSMLSEEEKEELKAELVQLEDEITTLRQVLSAKERHLVEIKQKLGMNLMNELKQNFSKSWHDMQTTTAYKKTHETLSHAGQKATAAFSNVGTAISKKFGDMSYSIRHSISMPAMRNSPTFKSFEERVETTVTSLKTKVGGTNPNGGSFEEVLSSTAHASAQSLAGGSRRTKEEELQC
B3: hD52 bait (GAL4 DNA-binding domain fused to full-length hD52, pAS2-1hD52) (other)
chain: MKLLSSIEQACDICRLKKLKCSKEKPKCAKCLKNNWECRYSPKTKRSMDRGEQGLLRTDPVPEEGEDVAATISATETLSEEEQEELRRELAKVEEEIQTLSQVLAAKEKHLAEIKRKLGINSLQELKQNIAKGWQDVTATSAYKKTSETLSQAGQKASAAFSSVGSVITKKLEDVKNSPTFKSFEEKVENLKSKVGGTKPAGGDFGEVLNSAANASATTTEPLPEKTQESL
notes: range 1-47; Fusion expressed in yeast; also called pAS2-1D52; full-length hD52 bait

The target in test [1] is B2. Put plainly: yeast two-hybrid, quantitative β-galactosidase assay in Y190. The protocol: Interactions between baits and interactors were assessed by qualitatively and/or quantitatively determining HIS3 and lacZ reporter gene activity in Y190 co-transfectants. […] For quantitative assessment of interactions, β-galactosidase activity was measured using the substrate o-nitrophenyl β-D-galactopyranoside (ONPG) in liquid cultures (SD/-His-Trp-Leu +35 mM 3-AT) of Y190 co-transfectants.

The target of test [2] is eukaryotic initiation factor 4AII library interactor (pAD-GAL4 construct) (human, UniProt P04386 761-881; Q14240 1-407, limits assumed). Put plainly: yeast two-hybrid, retransfection of a library interactor in Hf7c. The protocol: Transformants were plated onto solid SD/-His-Trp-Leu (incorporating 35 mM 3-AT in the case of Y190 transformants) and incubated for up to 14 days at 30° C. […] Colonies which remained His+, and in the case of Y190 co-transformants, were also lacZ+, were re-streaked onto fresh plates to check that all colonies were of uniform phenotype. After 6 days incubation at 30° C., yeast colonies were directly harvested, and plasmid DNA was isolated and used to transfect XL1 Blue. Mini-preparations of plasmid DNA were performed for at least 5 XL1 Blue colonies per transfection, with the results of restriction digests differentiating potential interactors from bait plasmids. […] Phenotypes of resulting co-transfectants were assayed quantitatively and/or qualitatively as described above.

Test [3] concerns the target hD54+ins2 bait (GAL4 DNA-binding domain fused to hD54+ins2, pAS2-1hD54+ins2) (human, UniProt P04386 1-47 (Saccharomyces cerevisiae entry), limits assumed). The test is described as follows: cell-based or functional assay.
For test [4], the target named is T1, GAL4 DNA-binding domain alone (empty …). The test is described as follows: cell-based or functional assay.
Test [5] addresses B3. The test is described as follows: cell-based or functional assay.
Test [6] deals with hD53 bait (GAL4 DNA-binding domain fused to full-length hD53, pAS2-1hD53) (human, UniProt P04386 1-47 (Saccharomyces cerevisiae entry), limits assumed). The test is described as follows: cell-based or functional assay.
Test [7] deals with T2, mD52 bait (GAL4 DNA-binding domain fused to full-length mD52, pAS2-1mD52) (mouse, UniProt P04386 1-47 (Saccharomyces cerevisiae entry), limits assumed). Put plainly: cell-based or functional assay.
The target of test [8] is hD54-ins2 bait (GAL4 DNA-binding domain fused to hD54-ins2, pAS2-1hD54-ins2) (human, UniProt P04386 1-47 (Saccharomyces cerevisiae entry), limits assumed). Put plainly: cell-based or functional assay.
Test [9] deals with mD52(1-95) bait (GAL4 DNA-binding domain fused to the N-terminal half of mD52, pAS2-1mD52(1-95)) (mouse, UniProt P04386 1-47 (Saccharomyces cerevisiae entry)). The test is described as follows: cell-based or functional assay.
The target in test [10] is T2, mD52 bait (GAL4 DNA-binding domain …). The test is described as follows: cell-based or functional assay. The source holds these as a separate data set.
Test [11] addresses B1. Put plainly: cell-based or functional assay.

For B1, the binding result in test [1] and in test [2] was “no binding” throughout.

For B2, the “β-galactosidase activity, yeast two-hybrid (Y190)” value is 11.7 β-galactosidase activity units (positive control = 1000) in [3]; 0 β-galactosidase activity units (positive control = 1000) in test [4]; 15.2 β-galactosidase activity units (positive control = 1000) in test [5]; 18.1 β-galactosidase activity units (positive control = 1000) in test [6]; 6.07 β-galactosidase activity units (positive control = 1000) in test [7]; 17.6 β-galactosidase activity units (positive control = 1000) in [8]. Further, the “β-galactosidase activity, yeast two-hybrid (Y190)” value in test [9] is 6.95 β-galactosidase activity units (positive control = 1000); in test [10], 5.44 β-galactosidase activity units (positive control = 1000); in test [11], 0.5 β-galactosidase activity units (positive control = 1000).

B3: the binding result in test [2] is on record as “no binding”.
